Substrate in series [1]: O=C(O)c1ccc(O)c(O)c1
The series can be described thus: decarboxylation kinetics, purified enzyme reconstituted in vitro with prFMN. The series is classed as biochemical, Enterobacter cloacae. As to conditions: apparent; prFMN iminium cofactor, after oxidative maturation.

Substrate in series [2]: O=C(O)c1ccc(O)c(O)c1
Described as above. Format: biochemical, Klebsiella pneumoniae. As to conditions: apparent; prFMN iminium cofactor, after oxidative maturation.

As usually defined, the Km is the substrate concentration at which the rate is half of its maximum. A word on the kcat: it is the number of substrate molecules converted per active site and unit of time at saturation.

B1: EcAroY (Enterobacter cloacae) (protein)
chain: MQNPINDLRSAIALLQRHPGHYIETDHPVDPNAELAGVYRHIGAGGTVKRPTRTGPAMMFNSVKGYPGSRILVGMHASRERAALLLGCVPSKLAQHVGQAVKNPVAPVVVPASQAPCQEQVFYADDPDFDLRKLLPAPTNTPIDAGPFFCLGLVLASDPEDTSLTDVTIHRLCVQERDELSMFLAAGRHIEVFRKKAEAAGKPLPVTINMGLDPAIYIGACFEAPTTPFGYNELGVAGALRQQPVELVQGVAVKEKAIARAEIIIEGELLPGVRVREDQHTNTGHAMPEFPGYCGEANPSLPVIKVKAVTMRNHAILQTLVGPGEEHTTLAGLPTEASIRNAVEEAIPGFLQNVYAHTAGGGKFLGILQVKKRQPSDEGRQGQAALIALATYSELKNIILVDEDVDIFDSDDILWAMTTRMQGDVSITTLPGIRGHQLDPSQSPDYSTSIRGNGISCKTIFDCTVPWALKARFERAPFMEVDPTPWAPELFSDKK
notes: recombinant, purified from E. coli (UbiX co-expressed), reconstituted in vitro with prFMN and oxidised; UbiD family; homohexamer; about 495 residues
For the protein B1, in series [1], the Km was found to be 61 ± 17 µM and the kcat was 4.6±0.4 s^-1 (printed as v max ^app).

B2: KpAroY (Klebsiella pneumoniae subsp. pneumoniae MGH 78578) (protein)
chain: MTAPIQDLRDAIALLQQHDNQYLETDHPVDPNAELAGVYRHIGAGGTVKRPTRIGPAMMFNNIKGYPHSRILVGMHASRQRAALLLGCEASQLALEVGKAVKKPVAPVVVPASSAPCQEQIFLADDPDFDLRTLLPAPTNTPIDAGPFFCLGLALASDPDDASLTDVTIHRLCVQGRDELSMFLAAGRHIEVFRQKAEAAGKPLPITINMGLDPAIYIGACFEAPTTPFGYNELGVAGALRQRPVELVQGVSVPEKAIARAEIVIEGELLPGVRVREDQHTNSGHAMPEFPGYCGGANPSLPVIKVKAVTMRNNAILQTLVGPGEEHTTLAGLPTEASIWNAVEAAIPGFLQNVYAHTAGGGKFLGILQVKKRQPADEGRQGQAALLALATYSELKNIILVDEDVDIFDSDDILWAMTTRMQGDVSITTIPGIRGHQLDPSQTPEYSPSIRGNGISCKTIFDCTVPWALKSHFERAPFADVDPRPFAPEYFARLEKNQGSAK
notes: recombinant, purified from E. coli (UbiX co-expressed), reconstituted in vitro with prFMN and oxidised; UbiD family; about 495 residues
As to B2, in series [2], the Km came out at 96 ± 23 µM and the kcat was 4.7±0.4 s^-1 (printed as v max ^app).

The values are drawn from paper PMC5656893, “Regioselective para‐Carboxylation of Catechols with a Prenylated Flavin Dependent Decarboxylase” (Angewandte Chemie (International Ed. in English), 2017).
